From US12708677B2, “Contrast agents, methods for preparing contrast agents, and methods of imaging” (Georgia State University Research Foundation, Inc., priority 2008, dated 2026)

Tests used:
[1] = Zn^2+ binding affinity, dye competition assay (FluoZin)
Source text: FIG. 1.6: Measurement of metal binding constants. Gd^3+ binding affinity (FIG. 1.6a) and Zn^2+ binding affinity (FIG. 1.6b) of CA1.CD2 measured by dye competition assays. CA1.CD2 stock solution was gradually added into the 1:1 dye-metal complex to compete for the dye-bound metal ions. The insets show the titration curve for the dye indicators fluo 5N (FIG. 1.6a) and FluoZin (FIG. 1.6b), respectively. (FIG. 1.6c) La^3+ binding affinity obtained by Aromatic residue sensitized Tb^3+ luminescence energy transfer. The Tb^3+ fluorescence of a protein-Tb^3+ mixture decreases with the addition of La^3+. The La^3+ concentrations are 0, 0.30, 0.76, 5.95, 11.03, and 28.95 μM from top to bottom. The Tb^3+ fluorescence decrease competition was fitted (line) by a normal competition plus a nonspecific quenching effect (inset).
(§1) Since metal selectivity for Gd^3+ over other physiological metal ions is for minimizing the toxicity of the agents,^39, 40 we measured metal binding constants using dye-competition assays with various chelate-metal buffer systems (Table 1). Low limit metal binding affinities of the proteins were also estimated based on Tb^3+-sensitized FRET and competition assays. […] This is considered for in vivo applications of the contrast agent as the phosphate concentration in serum is maintained at ~1.3 mM.^6, 9 The stability of a contrast agent in blood circulation is another factor for in vivo applications. We characterized the stability by incubating Gd-CA1.CD2 with 75% human serum at 37° C. for 3 and 6 hours.
Metal binding affinity for Ca^2+ and Zn^2+ were determined using similar competition methods and specific dyes with proper Kd values.

[2] = Mg^2+ binding constant, competition assays
Source text: as §1

[3] = Protein solubility by concentrating to precipitation; assay type: physicochemical; details: current formulation
Experimental: Protein was expressed in E. coli as inclusion body and purified using urea refolding and ion-exchange column. N15 labeled protein was expressed in SV medium as GST fusion (Yang et al., Biochem 2006) and purification was by GST-4B affinity column and SP column. Protein was verified by mass spectrometry. Protein concentration was calculated using extinction coefficient of w.t. CD2 of 11,000 (Ye et al., 2001). Protein solubility was determined by concentrating proteins to reach to precipitation using speed vac.

rabbits = experiment: Immunogenicity in rabbits, ELISA and immunoblotting; assay type: in vivo, rabbit
Experimental: FIG. 2.7: Illustrates ELISA (left) or western blot (right) analyses of antibody produced in rabbit serum after i.p. injection of […] of protein CA1.CD2 or PEGylated CA1.CD2 (PEGCA1.CD2). In (left), Pre is the serum from pre-bleeding before antigen injection. CA1.CD2 was mixed with adjuvant (CA1.CD2+Ad) or with buffer saline (CA1.CD2+Sal) before injection. PabCD2 is the anti-serum from rabbits produced by a commercial source use CD2 as antigen. The open bars are the first bleed after first injection. The gray bars are the second bleed after second injection. The rabbit blood was taken 3 weeks after each injection. The error bars are standard deviations of four measurements. In (right), Western blots were performed with anti-serum (1st bleed) from rabbits that were injected; CA1.CD2 mixed with buffered saline (left panel, CA1.CD2+Sal), CA1.CD2 mixed with adjuvant (middle panel, CA1.CD2+Ad), and the PEGylated CA1.CD2 (right panel, PEG-CA1.CD2). The Western blots experiments were carried out with 0.5 mg of PEGylated CA1.CD2 (PEG-CA1.CD2) or unmodified CA1.CD2 (CA1.CD2). Arrow indicates the position of the detected protein bands 19 hours post injection.
Rabbits were i.p. injected with Gd-CA1.CD2 and its pegylated variants. The agents (CA1.CD2) were mixed with adjuvant or with buffer saline and injected at a dose of 3.0 nmole/kg according to the standard protocol for the antibody production. […]

[4] = In vitro r1 and r2 proton relaxivity; assay type: physicochemical
Experimental: Determination of r1 and r2 Relaxivity Values, Relaxation times, T1 and T2, were determined at 1.5, 3, 9.4 Tesla using a Siemens whole-body MR system (1.5, 3T) or a Bruker MRI scanner (9.4T). T1 was determined using inversion recovery and T2 using a multi-echo Carr-Purcell-Meiboom-Gill (CPMG) sequence. The contrast agent samples (200 μl) with different concentrations were placed in eppendorf tubes. The tubes were placed on a tube rack, which was placed in MRI scanners for the measurement of relaxation times r1 and r2 were calculated based on r1(mM^−1 S^−1)=(1/T1s−1/T1c)/C and r2(mM^−1 S^−1)=(1/T2s−1/T2c)/C, where T1s and T2s are relaxation times with contrast agent and T1c and T2c are relaxation times without contrast agent. C is the concentration of contrast agent in mM (the measured Gd^3+ concentrations by ICP-MS). […]

AU565 = experiment: MR imaging of cancer cell pellets; assay type: cell-based
Experimental: (§2) To test whether our designed proteins are applicable for targeted imaging, we carried out MR imaging of cancer cells that were incubated with the designed protein contrast agents Gd-CA1-Affi using four different cancer cell lines with different expression levels of HER2. […] The MR image contrast enhancements from the contrast agent can be correlated to the HER2 levels.

SKOV3 = experiment: MR imaging of cancer cell pellets; assay type: cell-based
Experimental: as §2

| Molecule | Metal binding constant (Log Ka) Zn^2+ [1] | disassociation constant (Kd) for Zn^2+ [1] [mM] | Log (KGd/KZn) ([1]; metal selectivity) | Metal binding constant (Log Ka) Mg^2+ [2] | disassociation constant (Kd) for Mg^2+ [2] [mM] | Log (KGd/KMg) ([2]; metal selectivity) | solubility [3] | antibody production (rabbits; with adjuvant) | antibody production (rabbits; without adjuvant, double dose immunization, 3.0 nmole/kg i.p.) | r1 relative to Gd-DTPA ([4]; 1.5T) | r1 ([4]; B0 1.5 T) | r1 ([4]; B0 1.5 T, listed as CA1) [mM⁻¹ s⁻¹] | r1 ([4]; B0 3 T) [mM⁻¹ s⁻¹] | r1 ([4]; B0 9.4 T) [mM⁻¹ s⁻¹] | MR image of AU565 cell pellets (AU565) | MR image of SKOV3 cell pellets (SKOV3) |
| --- | --- | --- | --- | --- | --- | --- | --- | --- | --- | --- | --- | --- | --- | --- | --- | --- |
| CA1.CD2: designed Gd^3+-binding protein, domain 1 of rat CD2 with ligand residues Glu15, Glu56, Asp58, Asp62, Asp64 (protein) RDSGTVWGALGHGIELNIPNFQMTDDIDEVRWERGSTLVAEFKRKMKPFLKSGAFEIDANGDLDIKNLTRDDSGTYNVTVYSTNGTRILNKALDLRILE | 6.72 | 0.00019 | 5.34 | <2.0 | > 10 | >10.06 | ~ 0.7 mM | resulted in immuno-responses | did not lead to antibody production |  |  |  |  |  |  |  |
| Gd-CA1.CD2: CA1.CD2 in complex with Gd^3+ (protein) RDSGTVWGALGHGIELNIPNFQMTDDIDEVRWERGSTLVAEFKRKMKPFLKSGAFEIDANGDLDIKNLTRDDSGTYNVTVYSTNGTRILNKALDLRILE |  |  |  |  |  |  |  |  |  | about 20 fold | up to 117 mM^−1 s^−1 | 117 | 48 | 6 | no significant changes in MR image | no significant changes in MR image |
